{"source": "the nanobody polyreactivity screen of Harvey et al. (2022)"}
{"assay": "yeast display, Sf9 membrane polyspecificity reagent, FACS + sequencing; frameworks hold sequencing errors", "in_short": "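Sorting gates, low and high (top ~1%), were placed on anti-HA fluorescence to track expression and on streptavidin fluorescence to track reagent binding. A clone's polyreactivity label is taken from the gate it came out of. The reagent was 10% biotinylated, detergent-solubilized Sf9 membrane, applied for 1 hour at 4 °C to galactose-induced yeast display cells.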"}
{"sequence": "QVQLVESGGGLVQAGGSLRLSCAASGSIFNRYARGWYRQAPGKERELVAAISSTGSTYYADSVKGRFTISRDNAKNTVYLQMNSLKPEDTAVYYCNADATHDWLRVDTYEYWGQGTQVTVSS", "polyreactivity (PSR sort gate)": "low polyreactivity"}
{"sequence": "QVQLVESGGGLVQAGGSLRLSCAASGSIFNRYTMGWYRQAPGKEREFVAAIRNSGSRTYYADSVKRRFTISRDNAKNTVYLQMNSLKPEDTAVYYCAADGPLISSESYYWGQGTQVTVSS", "polyreactivity (PSR sort gate)": "low polyreactivity"}
{"sequence": "QVQLVESGGGLVQAGGSLRLSCAASGSIFNSNAMGWYRPAPGKEREFVATITQTGSSTYYADSVKGRFTISRDNAKNTVYLQMNSLKPEETAVYYCAVDWILYEYEDDFWYRYDYWGQGTQVTVSS", "polyreactivity (PSR sort gate)": "low polyreactivity"}
{"sequence": "QVQLVESGGGLVQAGGSLRLSCAASGSIFNSNGMGWYRQAPGKERELVAAITGGGSTNYADSVKGRFTISRDYAKNTVYLQMNSLKPEDTAVYYCAKRSYRTHTYDYWGQGTQVTVSS", "polyreactivity (PSR sort gate)": "low polyreactivity"}
{"sequence": "QVQLVESGGGLVQAGGSLRLSCAASGSIFNSYAMGWYRQAPGKERELVAAISSGGGRTYYADSVKGRFTISRDNAKNTVYLQMNSLKPEDTAVYYCNARAVYRFDYWGQGTQVTVSS", "polyreactivity (PSR sort gate)": "high polyreactivity"}
{"sequence": "QVQLVESGGGLVQAGGSLRLSCAASGSIFNTYAMGWYRQAPGKERELVAAISRSGDSTYYADSVKGRFTISRDNAKNTVYLQMNSLKPEDTAVYYCATGRTDHGYYYWGQGTQVTVSS", "polyreactivity (PSR sort gate)": "high polyreactivity"}
{"sequence": "QVQLVESGGGLVQAGGSLRLSCAASGSIFNWYALGWYRQAPGKDRELVAAISKSGGRPYYADSVKGRFTISRDNAKNTVYLQKNSLKPEDTAVFSCNAPRFVGLNVYGYDYWGQGTQVTVSS", "polyreactivity (PSR sort gate)": "high polyreactivity"}
{"sequence": "QVQLVESGGGLVQAGGSLRLSCAASGSIFNYNMGWYRQAPGKERELVAAVSTNYADSVKGRFTISRDNAKNTVYLQMNSLKPEDTAVYYCGVTPEKSGDEYDYWGQGTQVTVSS", "polyreactivity (PSR sort gate)": "low polyreactivity"}
{"sequence": "QVQLVESGGGLVQAGGSLRLSCAASGSIFNYNMGWYRQAPGKERELVAAVSTNYADTVKGRFTISRDNAKNTVYLQMNSLKPEDTAVYYCGVTPEKSGDEYDYGGQGTQVTVSS", "polyreactivity (PSR sort gate)": "low polyreactivity"}
{"sequence": "QVQLVESGGGLVQAGGSLRLSCAASGSIFNYSAMGWYRQAPGKERELVAAITTSGGNTYYADSVQGRFTISRDNAKNTVYLQMNSLKPEDSAVYYCARTVSRYGTGNMDYWGQGTKVTVSS", "polyreactivity (PSR sort gate)": "low polyreactivity"}
{"sequence": "QVQLVESGGGLVQAGGSLRLSCAASGSIFNYYALGWYRQAPGKEREFVADISGSGSSTYYADSVKGRFTISRDNAQNTVYLQMNSLKPEDTAVYYCNAEYYWGVGYYPYSDYGYWGQGTQVTVSS", "polyreactivity (PSR sort gate)": "low polyreactivity"}
{"sequence": "QVQLVESGGGLVQAGGSLRLSCAASGSIFNYYAMGWYRQAPGKERELVAAITTSGGNTYYADSVKGRFTISRDNAKNTVYLQMNSLKPEDTAVYYCNTVYAGAAWYQYGYWGQGTQVTVSS", "polyreactivity (PSR sort gate)": "low polyreactivity"}
{"sequence": "QVQLVESGGGLVQAGGSLRLSCAASGSIFNYYGMGWYRQAPGKERELVAAISVRGGRTYYADSVKGRFTISRDNAKNTVYLQMNSLKPEDTAVYYCAADGGYSLGYYDDELDYWGQGTQVTVSS", "polyreactivity (PSR sort gate)": "low polyreactivity"}
{"sequence": "QVQLVESGGGLVQAGGSLRLSCAASGSIFPAYAMGWYRQAPGKERELVAAITDRCGSTYYADSVKGRFTISRDNANNTVSLQMNSLKPEDTYWGQGTQVTVSS", "polyreactivity (PSR sort gate)": "low polyreactivity"}
{"sequence": "QVQLVESGGGLVQAGGSLRLSCAASGSIFPAYAMGWYRQAPGKERELVAAITGSGGSTYYADSVKGRFTISRDNAKNTVYLQLNSLKPEDTAVYYCAATIRQFRRYDYWGQGTQVTVSS", "polyreactivity (PSR sort gate)": "low polyreactivity"}
{"sequence": "QVQLVESGGGLVQAGGSLRLSCAASGSIFPAYTMGWYRPAPGKERELVAAITRRGGSTYYADSVKGRFTISRDNSKNTVYLQMNSLKPEDTAVYYCAAGGLYTPYDYWGQGTQVTVSS", "polyreactivity (PSR sort gate)": "low polyreactivity"}
{"sequence": "QVQLVESGGGLVQAGGSLRLSCAASGSIFPDNTMGWYRQAPGKERELVAAIDGRGGTTYYADSVKGRFTISRDNAKNTVYLQMNSLKPEDTAVYYCARDIGHSARYDYWGQGTQVTVSS", "polyreactivity (PSR sort gate)": "low polyreactivity"}
{"sequence": "QVQLVESGGGLVQAGGSLRLSCAASGSIFPEYAMGWYIQAPGKERELVASISSGGSSTYYADSVKGRFTISRDNAKNTVYLQMNSLKPEDTAVYYCARRRSYKRRFDYWGQGTQVTVSS", "polyreactivity (PSR sort gate)": "low polyreactivity"}
{"sequence": "QVQLVESGGGLVQAGGSLRLSCAASGSIFPEYAMGWYRQAPGKERELVAAITTSGGSTYYADSVKGRFTISRDNAKNTVYLQMNSLKPEDTAVYYCAAGTQAHAYVVRPIEMDYWGQGTQVTVSS", "polyreactivity (PSR sort gate)": "low polyreactivity"}
{"sequence": "QVQLVESGGGLVQAGGSLRLSCAASGSIFPFYAMGWSRQAPGKERELVAAITWISGRTYYADSVKGRFTISRDNAKTTVYLQRNRLKPEDTAVYYCAVDYYSWLRRDDYWGQGTQVTVSS", "polyreactivity (PSR sort gate)": "low polyreactivity"}
{"sequence": "QVQLVESGGGLVQAGGSLRLSCAASGSIFPFYAMGWYRQAPGKERELVATISWSGGRTYYADSVKGRFTISRDNAKNTVYLQMNSLKPEDTAVYYCAAGSYHYPNAYYYWGHGTQVTVSS", "polyreactivity (PSR sort gate)": "high polyreactivity"}
{"sequence": "QVQLVESGGGLVQAGGSLRLSCAASGSIFPGYAMGWSRQAPEKERELVAAISRRGGSTYYADSVKGRFTISRDNAKNTVYLQMNSLKPEDNAVYYCAKDGTGAGTYDYWGQGTKVTVSS", "polyreactivity (PSR sort gate)": "low polyreactivity"}
{"sequence": "QVQLVESGGGLVQAGGSLRLSCAASGSIFPGYAMGWYRQAPGKERELVAAISSGGSTNYADSVKGRFTISRDNAKNTVYLQMNSLKPEDTAVYYCAARVWRYHVYAFYYWGQGTQVTVSS", "polyreactivity (PSR sort gate)": "high polyreactivity"}
{"sequence": "QVQLVESGGGLVQAGGSLRLSCAASGSIFPGYAMGWYRQAPGKERELVATIRWSSGSRTNYADSVKGRFTISRDNAKNTVYLQMNSLKPEDTAVYYCAAGSRRYKYDYWGQGTQVTVSS", "polyreactivity (PSR sort gate)": "high polyreactivity"}
{"sequence": "QVQLVESGGGLVQAGGSLRLSCAASGSIFPGYAMGWYRQAPGKERELVATITWSGGSTYYADSVKGRFTISRDKAKNTVYLQMNSLKPEDTAVYYCNADSNWYYQWNYYGLYDYWGQGTQVTVSS", "polyreactivity (PSR sort gate)": "low polyreactivity"}
{"sequence": "QVQLVESGGGLVQAGGSLRLSCAASGSIFPHNAMGWYRQAPGKERVLVASITSRGGITYYADSVKGRFTISRDNAKNTVYLQMNSLKPEDTAVYYCAADLYIYPYDYWGQGTQVTVSS", "polyreactivity (PSR sort gate)": "low polyreactivity"}
{"sequence": "QVQLVESGGGLVQAGGSLRLSCAASGSIFPHNAMGWYRTAPGKDRELVAAISWRDVISYYADSVKGRFTISRDNAKNTVYLQMNSLKPEDTAVYYCAAELRVYGVDYEYWGQGTQVTVSS", "polyreactivity (PSR sort gate)": "high polyreactivity"}
{"sequence": "QVQLVESGGGLVQAGGSLRLSCAASGSIFPHNTMGWYRQAPGNERELVAAISRSGGSTYYADSVKGRFTISRDNAKNTVYLQMNSLKPEDTAVYYCARDSYDVGHQVVSDERLYDYWGQGTQVTVSS", "polyreactivity (PSR sort gate)": "low polyreactivity"}
{"sequence": "QVQLVESGGGLVQAGGSLRLSCAASGSIFPHYAMGWYRQAPGKERELVAAISSGTSTNYADSVKGRFTISRDNAKNTVYLQMNSLKPEDTAVYYCAADIGVYGERREEEFDYWGQGTQVTVSS", "polyreactivity (PSR sort gate)": "low polyreactivity"}
{"sequence": "QVQLVESGGGLVQAGGSLRLSCAASGSIFPHYAMGWYRQAPGKERELVATIRSRSGSTYYADSVKGRFTISRDNAKNTVYLQMNSLKPEDTAVYYCAKDNSLFQRDYWGQGTQVTVSS", "polyreactivity (PSR sort gate)": "low polyreactivity"}
